How the values were obtained:
[1] = molecular target: T1, human lymphotoxin (TNFβ) (human, UniProt P01374 35-205, limits assumed); assay: cell-based or functional assay
T1 sequence (looked up): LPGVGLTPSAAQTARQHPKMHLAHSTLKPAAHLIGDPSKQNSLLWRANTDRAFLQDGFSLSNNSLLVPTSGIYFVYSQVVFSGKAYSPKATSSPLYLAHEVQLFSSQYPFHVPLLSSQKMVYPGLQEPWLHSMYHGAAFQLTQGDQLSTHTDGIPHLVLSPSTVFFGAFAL

[2] = molecular target: human tumor necrosis factor-α (TNFα) (human, UniProt P01375 77-233); assay: cell-based or functional assay
Chain of human tumor necrosis factor-α (TNFα) (P01375 77-233): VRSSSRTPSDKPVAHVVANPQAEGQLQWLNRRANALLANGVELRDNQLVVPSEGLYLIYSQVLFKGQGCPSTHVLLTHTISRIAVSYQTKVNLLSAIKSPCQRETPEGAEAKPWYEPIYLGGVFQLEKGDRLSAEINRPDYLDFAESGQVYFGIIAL

p55-sf2 (p55 TNF receptor/IgG1 heavy chain single fusion with truncated light chain JCK) (from UniProt P19438) (Fc fusion)
amount needed for the same degree of inhibition of TNFβ, against p75P-sf2 (fold against p75P-sf2) [1]: 3

B1: p75-sf2 (complete extracellular domain of p75 fused to the IgG1 heavy chain) (Fc fusion)
chain: QLPAQVAFTPYAPEPGSTCRLREYYDQTAQMCCSKCSPGQHAKVFCTKTSDTVCDSCEDSTYTQLWNWVPECLSCGSRCSSDQVETQACTREQNRICTCRPGWYCALSKQEGCRLCAPLRKCRPGFGVARPGTETSDVVCKPCAPGTFSNTTSSTDICRPHQICNVVAIPGNASMDAVCTSTSPTRSMAPGAVHLPQPVSTRSQHTQPTPEPSTAPSTSFLLPMGPSPPAEGSTGDGTLVTVSS
amount needed for the same degree of inhibition of TNFβ, against p75P-sf2 [1]: 3 fold against p75P-sf2

B2: p75P-sf2 (p75 amino acids 1-182 fused to the IgG1 heavy chain; lacks the C-terminal 53 amino acids of the p75 extracellular domain) (Fc fusion)
chain: QLPAQVAFTPYAPEPGSTCRLREYYDQTAQMCCSKCSPGQHAKVFCTKTSDTVCDSCEDSTYTQLWNWVPECLSCGSRCSSDQVETQACTREQNRICTCRPGWYCALSKQEGCRLCAPLRKCRPGFGVARPGTETSDVVCKPCAPGTFSNTTSSTDICRPHQICNVVAIPGNASMDAVCTSTSDGTLVTVSS
IC50 = concentration of fusion protein required to inhibit 2 ng/ml (39.2 pM) TNFα by 50%, WEHI 164 cytotoxicity assay [2]: 70 pM
Molar ratio fp: TNFα at IC50, WEHI 164 cytotoxicity assay [2]: 1.8

B3: chimeric mouse/human IgG1 anti-platelet mAb (7E3) (antibody, INN chains, looked up, V domains shown)
VH: EVQLQQSGTVLARPGASVKMSCEASGYTFTNYWMHWVKQRPGQGLEWIGAIYPGNSDTSYIQKFKGKAKLTAVTSTTSVYMELSSLTNEDSAVYYCTLYDGYYVFAYWGQGTLVTVSA
VL: EIVLTQSPVTLSVTPGDSVSLSCRASRDISNNLHWFQQTSHESPRLLIKYASQSMSGIPSRFSGSGSGTDFTLSINSVETEDFGMYFCQQTNSWPYTFGGGTKLEIK
modifications: IgG1
IL-6 in supernatant of FS-4 fibroblasts (ng/ml), rhTNF 0.3 ng/ml, antibody 4 µg/ml (no antibody: 1.36) [2]: 1.6 ng/mL
IL-6 in supernatant of FS-4 fibroblasts (ng/ml), rhTNF 1.5 ng/ml, antibody 4 µg/ml (no antibody: 2.00) [2]: 1.96 ng/mL
IL-6 in supernatant of FS-4 fibroblasts (ng/ml), rhTNF 7.5 ng/ml, antibody 4 µg/ml (no antibody: 2.56) [2]: 2.16 ng/mL
